Holding throughout (assay): cell-based or functional assay
Assay [1] concerns the target T1, human IL-36R (on cells) (human, UniProt Q9HB29 20-575).
T1 sequence (looked up): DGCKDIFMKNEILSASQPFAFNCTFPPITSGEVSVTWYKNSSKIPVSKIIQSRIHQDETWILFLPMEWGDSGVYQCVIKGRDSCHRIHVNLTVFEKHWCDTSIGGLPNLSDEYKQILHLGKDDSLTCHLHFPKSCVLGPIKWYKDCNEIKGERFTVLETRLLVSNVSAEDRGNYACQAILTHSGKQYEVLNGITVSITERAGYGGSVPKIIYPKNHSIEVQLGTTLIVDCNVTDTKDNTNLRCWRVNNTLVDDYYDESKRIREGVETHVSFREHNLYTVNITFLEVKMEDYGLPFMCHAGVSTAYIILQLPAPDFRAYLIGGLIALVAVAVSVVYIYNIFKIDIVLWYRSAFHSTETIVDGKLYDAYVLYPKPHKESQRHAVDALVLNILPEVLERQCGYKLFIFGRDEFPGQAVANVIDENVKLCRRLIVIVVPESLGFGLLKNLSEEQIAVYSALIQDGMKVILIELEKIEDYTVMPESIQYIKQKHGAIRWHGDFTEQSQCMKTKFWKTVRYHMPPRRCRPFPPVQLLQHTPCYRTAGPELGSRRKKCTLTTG

Assay [2] addresses cynomolgus IL-36R (on cells, allelic variant not stated) (cynomolgus monkey), A0A2K5.
In assay [3] the target is T1, human IL-36R (on cells). The source holds these as a separate data set.

Sequence of cynomolgus IL-36R (on cells, allelic variant not stated) (cynomolgus monkey), A0A2K5 (chain, as listed by the source mutant): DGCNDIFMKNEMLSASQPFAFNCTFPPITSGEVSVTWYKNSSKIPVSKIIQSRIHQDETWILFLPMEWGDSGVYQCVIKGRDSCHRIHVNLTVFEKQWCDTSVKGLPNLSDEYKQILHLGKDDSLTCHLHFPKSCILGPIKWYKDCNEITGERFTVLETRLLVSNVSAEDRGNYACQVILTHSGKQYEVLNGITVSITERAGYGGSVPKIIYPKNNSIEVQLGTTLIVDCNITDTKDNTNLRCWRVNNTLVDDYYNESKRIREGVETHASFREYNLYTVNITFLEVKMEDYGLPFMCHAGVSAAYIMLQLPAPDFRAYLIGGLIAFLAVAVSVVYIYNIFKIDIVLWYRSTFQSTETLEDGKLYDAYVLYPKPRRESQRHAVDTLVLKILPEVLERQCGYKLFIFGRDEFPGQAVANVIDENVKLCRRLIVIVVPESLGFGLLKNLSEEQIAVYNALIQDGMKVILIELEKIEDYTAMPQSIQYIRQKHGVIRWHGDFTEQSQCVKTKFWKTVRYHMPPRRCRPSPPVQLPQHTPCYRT

B1: Chimeric 1D9 (APE3798) (antibody, V domains shown)
VH: QVQLQQSGPELVKPGALVKISCKASGFTFTSYDINWVRQRPGQGLEWIGWIYPGDGSTKYNEKFKGKATLTADKSSSTAYMQLSSLTSENSAVYFCTRSFYTMDYWGQGTSVTVSS
VL: DIVMTQAAPSVPVTPGESVSISCRSSKSLLHSNGNTYLYWFLQRPGQSPQLLISRMSNLASGVPDRFSGSGSGTAFTLRISRVEAEDVGVYYCMQHLEYPFTFGSGTKLEIK
With B1, in assay [1], the “EC50 (nM), HEK human IL-36R IL-8 luciferase reporter assay, 20 ng/ml hIL-36β” value (“EC50 (nM) … 20 ng/ml hIL-36β” for short) was determined as 0.267 nM and the “EC50 (nM), HEK human IL-36R IL-8 luciferase reporter assay, 200 ng/ml hIL-36γ” value (“EC50 (nM) … 200 ng/ml hIL-36γ” for short) came out at 0.093 nM.

B2: Hzd 18D4 (APE5713) (antibody, V domains shown)
VH: QVQFQESGPGLVKPSQTLSLTCTVSGYSITSDFAWNWIRQPPGKGLEWIGYISYSGDTNYNPSLKSRVTISRDTSKNQFSLKLSSVTAADTAVYFCAIRGPYSFTYWGQGTLVTVSS
VL: DIQMTQSPSSLSASVGDRVTITCRASQDINNYLNWYQQKPGKAPKLLIYYTSRLHSGVPSRFSPSGSGTDYTFTISSLQPEDIATYYCQQGHTLPWTFGGGTKVEIK
For B2, the “EC50 (nM) … 200 ng/ml hIL-36γ” value in assay [1] was found to be 11 nM.

B3: Chimeric 18D4 (APE3847) (antibody, V domains shown)
VH: DVQFQESGPGLVKPSQSLSLTCTVTGYSITSDFAWNWIRQFPGNKLEWMGYISYSGDTNYNPSLKSRISITRDTSKNQFFLQLNSVTTEDTATYFCAIRGPYSFTYWGPGTLVTVSS
VL: DIQMTQTTSSLSASLGDRVTINCRASQDINNYLNWYQQKPDGTIRLLIYYTSRLHSGVPSRFSPNGSGTDYSLTINNLEQEDIATYFCQQGHTLPWTFGGGTKLEIK
For the molecule B3, in assay [2], the EC50 (nM), HEK cyno IL-36R IL-8 luciferase reporter assay, 300 ng/ml cIL-36γ is 0.51 nM. For the same molecule, in assay [1], the “EC50 (nM) … 20 ng/ml hIL-36β” value was 4.2 nM and the “EC50 (nM) … 200 ng/ml hIL-36γ” value was 3.6 nM. Moreover, in assay [3], the “EC50 (nM), IL-8 secretion by primary human monocytes, human IL-36β” value worked out at 6 nM and the “EC50 (nM), IL-8 secretion by primary human monocytes, human IL-36γ” value was determined as 3 nM.

B4: Chimeric 5D3 (APE3849) (antibody, V domains shown)
VH: QVQLQQSGPELVRPGASVRMSCKASDYTFTNYWMHWVKQRPGQGLEWIGMFDPSNSVTRLNQKFKDKATLNVDKSSNTAYIQFSSLTFEDSAVYYCARTTSMIIGGFAYWGQGTLVTVSS
VL: DIVMTQAAFSNPVTLGTSASISCRSSKSLLHSNGITYFYWYLQRPGQSPQLLIYQMSNLASGVPDRFSGSGSGTDFTLRISRVEAEDVGIYYCAQNLELPLTFGAGTKLELK
For B4, in assay [1], the “EC50 (nM) … 20 ng/ml hIL-36β” value was 1.3 nM and the “EC50 (nM) … 200 ng/ml hIL-36γ” value is 3.1 nM.

The values are drawn from patent publication US20200087408A1 (ANAPTYSBIO, published 2020).
